# Data reported in US5962294A, “Compositions and methods for the identification and synthesis of sialyltransferases” (The Regents of the University of California, priority 1993, dated 1999).
# T1: human ST3N (Homo sapiens, UniProt Q11203)
# T1 sequence (Q11203 62-375): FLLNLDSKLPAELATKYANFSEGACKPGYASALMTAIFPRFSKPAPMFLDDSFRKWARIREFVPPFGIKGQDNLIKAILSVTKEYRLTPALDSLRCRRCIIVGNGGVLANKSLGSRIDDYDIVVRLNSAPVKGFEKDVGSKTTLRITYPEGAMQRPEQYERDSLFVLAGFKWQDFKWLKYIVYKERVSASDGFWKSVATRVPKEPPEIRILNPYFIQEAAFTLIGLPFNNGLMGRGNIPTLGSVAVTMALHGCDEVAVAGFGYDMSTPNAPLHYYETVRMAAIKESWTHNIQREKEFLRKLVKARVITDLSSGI
# T2: ST3O (Sus scrofa, UniProt Q02745)
# T2 sequence (Q02745 28-343 limits assumed): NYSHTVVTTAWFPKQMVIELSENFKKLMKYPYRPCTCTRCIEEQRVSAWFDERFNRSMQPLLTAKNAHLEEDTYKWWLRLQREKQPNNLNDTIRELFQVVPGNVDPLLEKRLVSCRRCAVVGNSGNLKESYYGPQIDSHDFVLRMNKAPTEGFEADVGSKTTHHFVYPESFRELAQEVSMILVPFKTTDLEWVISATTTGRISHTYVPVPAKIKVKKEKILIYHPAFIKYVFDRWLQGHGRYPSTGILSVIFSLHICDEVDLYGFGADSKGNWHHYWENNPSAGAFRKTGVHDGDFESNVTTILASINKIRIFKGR
# T3: rat ST3N (Rattus norvegicus, UniProt Q02734)
# T3 sequence (Q02734 29-374 limits assumed): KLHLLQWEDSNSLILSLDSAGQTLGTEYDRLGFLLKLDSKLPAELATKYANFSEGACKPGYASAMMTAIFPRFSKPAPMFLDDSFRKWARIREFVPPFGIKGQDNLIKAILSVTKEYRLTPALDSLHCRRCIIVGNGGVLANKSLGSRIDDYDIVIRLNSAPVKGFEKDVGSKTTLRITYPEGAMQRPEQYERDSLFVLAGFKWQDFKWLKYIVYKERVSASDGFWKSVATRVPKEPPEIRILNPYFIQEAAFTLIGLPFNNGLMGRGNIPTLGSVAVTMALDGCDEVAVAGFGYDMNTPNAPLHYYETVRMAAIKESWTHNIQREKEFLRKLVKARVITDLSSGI
# T4: ST3 (Homo sapiens, UniProt Q11206)
# T4 construct: A truncated form of ST3, lacking the first 39 amino acids of the long-form open reading frame; made in house; host or cells: COS-1 (concentrated culture medium)
# T4 sequence (Q11206 41-333): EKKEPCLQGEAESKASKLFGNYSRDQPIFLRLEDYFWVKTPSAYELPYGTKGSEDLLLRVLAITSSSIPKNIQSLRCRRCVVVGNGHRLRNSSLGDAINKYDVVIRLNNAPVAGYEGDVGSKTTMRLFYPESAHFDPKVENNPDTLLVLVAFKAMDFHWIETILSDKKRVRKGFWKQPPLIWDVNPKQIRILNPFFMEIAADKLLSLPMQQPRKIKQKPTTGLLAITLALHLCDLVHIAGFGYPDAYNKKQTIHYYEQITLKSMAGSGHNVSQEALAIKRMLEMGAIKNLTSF
# T5: ST3N (Rattus norvegicus, UniProt Q02734)
# T5 sequence (Q02734 29-374 limits assumed): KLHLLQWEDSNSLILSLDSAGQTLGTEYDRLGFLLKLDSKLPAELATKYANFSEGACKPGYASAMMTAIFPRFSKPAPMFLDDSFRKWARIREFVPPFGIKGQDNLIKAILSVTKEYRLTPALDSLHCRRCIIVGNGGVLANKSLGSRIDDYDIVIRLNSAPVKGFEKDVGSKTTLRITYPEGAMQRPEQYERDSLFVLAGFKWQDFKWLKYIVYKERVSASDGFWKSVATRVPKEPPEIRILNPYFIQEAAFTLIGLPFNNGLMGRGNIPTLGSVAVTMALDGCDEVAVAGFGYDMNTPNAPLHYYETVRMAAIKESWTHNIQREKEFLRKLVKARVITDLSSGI
# T6: α2,3-N sialyltransferase (Rattus norvegicus, UniProt Q02734)
# T6 construct: made in house; host or cells: COS-1 (concentrated culture medium, plasmid pBD122)
# T6 sequence (Q02734 29-374 limits assumed): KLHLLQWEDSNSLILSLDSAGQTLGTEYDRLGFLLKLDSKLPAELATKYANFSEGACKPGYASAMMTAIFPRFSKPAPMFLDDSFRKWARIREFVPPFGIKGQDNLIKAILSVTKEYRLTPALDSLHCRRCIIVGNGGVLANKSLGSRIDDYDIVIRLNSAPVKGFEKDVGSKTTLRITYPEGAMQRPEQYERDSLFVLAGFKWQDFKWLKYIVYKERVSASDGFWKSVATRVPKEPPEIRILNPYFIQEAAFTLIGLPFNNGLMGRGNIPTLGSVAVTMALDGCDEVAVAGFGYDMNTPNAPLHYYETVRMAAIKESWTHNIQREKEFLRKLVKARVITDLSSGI
# T7: (Sus scrofa, UniProt Q02745)
# T7 sequence (Q02745 28-343 limits assumed): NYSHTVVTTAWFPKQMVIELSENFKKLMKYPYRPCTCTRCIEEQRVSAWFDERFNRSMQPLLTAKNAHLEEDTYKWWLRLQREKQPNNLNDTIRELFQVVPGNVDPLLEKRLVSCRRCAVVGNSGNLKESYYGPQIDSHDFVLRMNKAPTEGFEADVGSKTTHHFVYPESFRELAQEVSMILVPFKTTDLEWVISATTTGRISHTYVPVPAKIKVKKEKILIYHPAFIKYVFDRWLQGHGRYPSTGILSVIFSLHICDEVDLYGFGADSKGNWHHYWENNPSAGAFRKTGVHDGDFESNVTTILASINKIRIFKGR
# B1: Form B: 45 kDa molecular weight form of the porcine liver α2,3 sialyltransferase (protein)
# chain: NYSHTVVTTAWFPKQMVIELSENFKKLMKYPYRPCTCTRCIEEQRVSAWFDERFNRSMQPLLTAKNAHLEEDTYKWWLRLQREKQPNNLNDTIRELFQVVPGNVDPLLEKRLVSCRRCAVVGNSGNLKESYYGPQIDSHDFVLRMNKAPTEGFEADVGSKTTHHFVYPESFRELAQEVSMILVPFKTTDLEWVISATTTGTISHTYVPVPAKIKVKKEKILIYHPAFIKYVFDRWLQGHGRYPSTGILSVIFSLHICDEVDLYGFGADSKGNWHHYWENNPSAGAFRKTGVHDGDFESNVTTILASINKIRIFKGR
# B2: sp-ST: fusion of insulin signal sequence, 9 linker amino acids and the catalytic domain of α2,3-0 sialyltransferase (protein)
# chain: NYSHTVVTTAWFPKQMVIELSENFKKLMKYPYRPCTCTRCIEEQRVSAWFDERFNRSMQPLLTAKNAHLEEDTYKWWLRLQREKQPNNLNDTIRELFQVVPGNVDPLLEKRLVSCRRCAVVGNSGNLKESYYGPQIDSHDFVLRMNKAPTEGFEADVGSKTTHHFVYPESFRELAQEVSMILVPFKTTDLEWVISATTTGTISHTYVPVPAKIKVKKEKILIYHPAFIKYVFDRWLQGHGRYPSTGILSVIFSLHICDEVDLYGFGADSKGNWHHYWENNPSAGAFRKTGVHDGDFESNVTTILASINKIRIFKGR
# Experiments:
# human ST3N = target: T1, human ST3N; experiment: Acceptor specificity of soluble human ST3N (protein A fusion from COS-1 cells, on IgG Sepharose); settings: acceptor 0.2 mM; relative to LNT
# ST3O = target: T2, ST3O; experiment: Acceptor specificity of ST3O (Table 4); settings: acceptor 0.2 mM
# rat ST3N = target: T3, rat ST3N; experiment: Acceptor specificity of soluble rat ST3N fusion protein (Table 3); settings: acceptor 0.2 mM; relative to LNT
# ST3 = target: T4, ST3; experiment: Acceptor specificity of soluble ST3 (AZ3, concentrated COS-1 media); format: biochemical
# ST3N = target: T5, ST3N; experiment: Acceptor specificity of ST3N (Table 4); settings: acceptor 0.2 mM
# α2,3-N sialyltransferase = target: T6, α2,3-N sialyltransferase; experiment: Sialyltransferase assay of soluble rat α2,3-N secreted from COS-1 cells (pBD122); format: biochemical
# Procedure: In order to produce a soluble form of the sialyltransferase for enzymatic characterization, a fusion protein containing the catalytic domain of the enzyme and the insulin cleavable signal sequence was constructed in the mammalian expression vector pSVL (Pharmacia). […] PCR reactions were carried out as described above with annealing temperature at 55° C.
# [1] = system: acceptor substrate antifreeze glycoprotein (AFGP); settings: Rearick et al. 1979; cited from earlier work
# [2] = system: acceptor substrate antifreeze glycoprotein (AFGP); experiment: Sialyltransferase activity of purified porcine liver α2,3-0 sialyltransferase; format: biochemical; settings: after third CDP-hexanolamine agarose column
# From the text: FIG. 4 Purification of the α2,3-0 sialyltransferase on CDP-hexanolamine agarose (column III, CDP elution). […] In columns A and B elution of enzyme activity correlated predominantly with 48 kDa and a 45 kDa protein species, respectively (see inset, SDS-PAGE). These two species, form A and form B of the α2,3 sialyltransferase, had specific activities of 8-10 units/mg protein. The 48 kDA and 45 kDA species were blotted to a PVDF membrane and analyzed by NH2 -terminal sequencing.
# The enzyme was purified from a porcine liver Triton X-100 extract by affinity chromatography on three successive columns of CDP-hexanolamineagarose. The elution profile from the first and third purification steps are shown in FIG. 3 and FIG. 4, respectively. […] These two peaks were separated by combining the indicated fractions into pools A and B, these two pools were subsequently found to be enriched in two different molecular weight forms of the α2,3-0 sialyltransferase.
# The membranes were extracted three times with buffer (Conradt, H. S. et al., in Sialic Acids 1988 Proceedings of the Japanese-German Symposium on Sialic Acids (Schauer and Yamakawa, eds.) pp. 104-105, Verlag Wissenschaft and Bildung, Kiel [1988]) and the extract was passed over a 1.5 l CDP-hexanolamine agarose column (column 1) (16 umol/ml). After washing the column with 3 L buffer B, the column was eluted with a linear gradient of 0.05 to 1.0 M KCL (2.5 l×2.5 l) in buffer B. Fractions containing α2,3 sialyltransferase were combined into two pools A and B, representing the main part and the trailing end of the peak, respectively (see FIG. 3). The pools were dialysed against buffer B and subjected to another round of affinity chromatography on CDP-hexanolamine agarose (columns IIA and IIB). A 150 ml column was used for pool A and a 30 ml column was used for pool B; two preparations from column I (from total of 4 kg liver) were loaded on the same column in step II. […]
# [3] = target: T7, (Sus scrofa, UniProt Q02745); experiment: Sialyltransferase activity in media of COS-1 cells transfected with sp-ST; settings: 48 hours post-transfection, media concentrated
molecule,measurement,setting,value
"Asialo-α1 -acid glycoprotein: glycoprotein acceptor (Galβ1,4GlcNAc-R)",Relative activity (%) Human,human ST3N,14%
same,Relative rate (%) ST30,ST3O,0%
same,Relative activity (%) Rat,rat ST3N,9%
same,acceptor substrate for ST3 enzyme (in words),ST3,sialic acid was incorporated
same,Relative rate (%) ST3N,ST3N,9%
same,"acceptor utilisation by secreted α2,3-N enzyme","α2,3-N sialyltransferase",capable of sialylating
B1,catalytic activity (in words),[1],fully catalytically active
same,specific activity,[2],8-10 units/mg protein
B2,sialyltransferase activity in media,[3],contained milliunits/ml of the sialyltransferase
